Results from patent publication US20180177842A1 (CANIMGUIDE THERAPEUTICS, published 2018).

T1: P3028 (VFDEFKPLVEEPQNLIK, SEQ ID NO: 185), His-tagged (human)
T1 construct: Synthetic fragment of human serum albumin (positions 397-413); used in solution as His-tagged peptide PGE73; also called PGE73; not shown: His-tag
T1 peptide: VFDEFKPLVEEPQNLIK


Molecular target: T1, P3028 (VFDEFKPLVEEPQNLIK, SEQ ID NO: …)
Assay: PEPSCAN ELISA; peptide on chip, His-P3028 added;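 note: peroxidase color development with ABTS and H2O2 substrate, OD405 imaged by CCD camera with image processing and taken as raw values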

Binder | RAMPO Score
AKLDTFFVKLSLFTER [AKLDTFFVKLSLFTER (SEQ ID NO: 268)] | 466 rampo units
KKLDPFFVKLSLFTER [KKLDPFFVKLSLFTER (SEQ ID NO: 307)] | 427 rampo units
KKADTFFVKLSLFTER [KKADTFFVKLSLFTER (SEQ ID NO: 282)] | 427 rampo units
KKLDLFFVKLSLFTER [KKLDLFFVKLSLFTER (SEQ ID NO: 484)] | 311 rampo units
KKKDTFFVKLSLFTER [KKKDTFFVKLSLFTER (SEQ ID NO: 290)] | 386 rampo units
KKLDAFFVKLSLFTER [KKLDAFFVKLSLFTER (SEQ ID NO: 447)] | 346 rampo units
KKLDNFFVKLSLFTER [KKLDNFFVKLSLFTER (SEQ ID NO: 306)] | 436 rampo units
KCLDTFFVKLSLFTER [KCLDTFFVKLSLFTER (SEQ ID NO: 499)] | 295 rampo units
KKLDRFFVKLSLFTER [KKLDRFFVKLSLFTER (SEQ ID NO: 309)] | 430 rampo units
KHLDTFFVKLSLFTER [KHLDTFFVKLSLFTER (SEQ ID NO: 418)] | 394 rampo units
KKLDDFFVKLSLFTER [KKLDDFFVKLSLFTER (SEQ ID NO: 500)] | 295 rampo units
KILDTFFVKLSLFTER [KILDTFFVKLSLFTER (SEQ ID NO: 467)] | 331 rampo units
KKLCTFFVKLSLFTER [KKLCTFFVKLSLFTER (SEQ ID NO: 449)] | 344 rampo units
KDLDTFFVKLSLFTER [KDLDTFFVKLSLFTER (SEQ ID NO: 461)] | 335 rampo units
GKLDTFFVKLSLFTER [GKLDTFFVKLSLFTER (SEQ ID NO: 271)] | 367 rampo units
KALDTFFVKLSLFTER [KALDTFFVKLSLFTER (SEQ ID NO: 485)] | 309 rampo units
KKDDTFFVKLSLFTER [KKDDTFFVKLSLFTER (SEQ ID NO: 284)] | 492 rampo units
KKLDQFFVKLSLFTER [KKLDQFFVKLSLFTER (SEQ ID NO: 308)] | 535 rampo units
KKLDEFFVKLSLFTER [KKLDEFFVKLSLFTER (SEQ ID NO: 456)] | 341 rampo units
KKLDMFFVKLSLFTER [KKLDMFFVKLSLFTER (SEQ ID NO: 305)] | 475 rampo units
KGLDTFFVKLSLFTER [KGLDTFFVKLSLFTER (SEQ ID NO: 412)] | 405 rampo units
KKLDIFFVKLSLFTER [KKLDIFFVKLSLFTER (SEQ ID NO: 501)] | 293 rampo units

Binder | RAMPO Score
KELDTFFVKLSLFTER [KELDTFFVKLSLFTER (SEQ ID NO: 441)] | 349 rampo units
KKLDSFFVKLSLFTER [KKLDSFFVKLSLFTER (SEQ ID NO: 310)] | 458 rampo units
KKGDTFFVKLSLFTER [KKGDTFFVKLSLFTER (SEQ ID NO: 287)] | 563 rampo units
KKLATFFVKLSLFTER [KKLATFFVKLSLFTER (SEQ ID NO: 298)] | 494 rampo units
KKLDHFFVKLSLFTER [KKLDHFFVKLSLFTER (SEQ ID NO: 420)] | 391 rampo units
KKLDGFFVKLSLFTER [KKLDGFFVKLSLFTER (SEQ ID NO: 95)] | 386 rampo units
KKHDTFFVKLSLFTER [KKHDTFFVKLSLFTER (SEQ ID NO: 288)] | 477 rampo units
KKLDTAFVKLSLFTER [KKLDTAFVKLSLFTER (SEQ ID NO: 313)] | 575 rampo units
KKLDFFFVKLSLFTER [KKLDFFFVKLSLFTER (SEQ ID NO: 504)] | 290 rampo units
KFLDTFFVKLSLFTER [KFLDTFFVKLSLFTER (SEQ ID NO: 421)] | 390 rampo units
FKLDTFFVKLSLFTER [FKLDTFFVKLSLFTER (SEQ ID NO: 465)] | 332 rampo units
KKLDKFFVKLSLFTER [KKLDKFFVKLSLFTER (SEQ ID NO: 530)] | 237 rampo units
DKLDTFFVKLSLFTER [DKLDTFFVKLSLFTER (SEQ ID NO: 269)] | 373 rampo units
EKLDTFFVKLSLFTER [EKLDTFFVKLSLFTER (SEQ ID NO: 270)] | 396 rampo units
HKLDTFFVKLSLFTER [HKLDTFFVKLSLFTER (SEQ ID NO: 272)] | 428 rampo units
KKIDTFFVKLSLFTER [KKIDTFFVKLSLFTER (SEQ ID NO: 289)] | 454 rampo units
KKFDTFFVKLSLFTER [KKFDTFFVKLSLFTER (SEQ ID NO: 286)] | 393 rampo units
KKEDTFFVKLSLFTER [KKEDTFFVKLSLFTER (SEQ ID NO: 285)] | 528 rampo units
KKCDTFFVKLSLFTER [KKCDTFFVKLSLFTER (SEQ ID NO: 283)] | 432 rampo units
IKLDTFFVKLSLFTER [IKLDTFFVKLSLFTER (SEQ ID NO: 273)] | 483 rampo units
KKLDCFFVKLSLFTER [KKLDCFFVKLSLFTER (SEQ ID NO: 304)] | 449 rampo units

More lines, now with the values ahead:

RAMPO Score | Binder
335 rampo units | KKLDTCFVKLSLFTER [KKLDTCFVKLSLFTER (SEQ ID NO: 462)]
403 rampo units | KKLDTFFVKFSLFTER [KKLDTFFVKFSLFTER (SEQ ID NO: 333)]
298 rampo units | KKLDTFFTKLSLFTER [KKLDTFFTKLSLFTER (SEQ ID NO: 496)]
495 rampo units | KKLDTFFVKGSLFTER [KKLDTFFVKGSLFTER (SEQ ID NO: 334)]
365 rampo units | KKLDTFFRKLSLFTER [KKLDTFFRKLSLFTER (SEQ ID NO: 330)]
415 rampo units | KKLDTFFVKISLFTER [KKLDTFFVKISLFTER (SEQ ID NO: 335)]
341 rampo units | KKLDTFFVKLCLFTER [KKLDTFFVKLCLFTER (SEQ ID NO: 457)]
301 rampo units | KKLDTFDVKLSLFTER [KKLDTFDVKLSLFTER (SEQ ID NO: 492)]
299 rampo units | KKLDTFFAKLSLFTER [KKLDTFFAKLSLFTER (SEQ ID NO: 495)]
234 rampo units | KKLDTFFVKLELFTER [KKLDTFFVKLELFTER (SEQ ID NO: 532)]
240 rampo units | KKLDTFFVELSLFTER [KKLDTFFVELSLFTER (SEQ ID NO: 527)]
401 rampo units | KKLDTFFIKLSLFTER [KKLDTFFIKLSLFTER (SEQ ID NO: 416)]
322 rampo units | KKLDTFFVKLDLFTER [KKLDTFFVKLDLFTER (SEQ ID NO: 474)]
254 rampo units | KKLDTFFCKLSLFTER [KKLDTFFCKLSLFTER (SEQ ID NO: 519)]
358 rampo units | KKLDTFFFKLSLFTER [KKLDTFFFKLSLFTER (SEQ ID NO: 326)]
306 rampo units | KKLDTFFVHLSLFTER [KKLDTFFVHLSLFTER (SEQ ID NO: 488)]
379 rampo units | KKLDTFFGKLSLFTER [KKLDTFFGKLSLFTER (SEQ ID NO: 327)]
411 rampo units | KKLDTFCVKLSLFTER [KKLDTFCVKLSLFTER (SEQ ID NO: 409)]
426 rampo units | KKLDTFAVKLSLFTER [KKLDTFAVKLSLFTER (SEQ ID NO: 404)]
285 rampo units | KKLDTFFVKKSLFTER [KKLDTFFVKKSLFTER (SEQ ID NO: 506)]
318 rampo units | KKLDTFFVKLALFTER [KKLDTFFVKLALFTER (SEQ ID NO: 477)]
456 rampo units | KKLDTFFPKLSLFTER (also called 32251) [KKLDTFFPKLSLFTER (SEQ ID NO: 329)]
381 rampo units | KKLDTFEVKLSLFTER [KKLDTFEVKLSLFTER (SEQ ID NO: 424)]
411 rampo units | KKLDTFFLKLSLFTER [KKLDTFFLKLSLFTER (SEQ ID NO: 328)]
271 rampo units | KKLDTFFQKLSLFTER [KKLDTFFQKLSLFTER (SEQ ID NO: 513)]
426 rampo units | KKLDTFFVKASLFTER [KKLDTFFVKASLFTER (SEQ ID NO: 332)]
283 rampo units | KKLDTFFVKCSLFTER [KKLDTFFVKCSLFTER (SEQ ID NO: 508)]
293 rampo units | KKLDTFFVKHSLFTER [KKLDTFFVKHSLFTER (SEQ ID NO: 502)]
